Data from patent US20040167074A1, “Therapeutic applications of mFLINT polypeptides” (priority 1998, published 2004).

Tests used:
[1] = biological target: T1, TNFα (Homo sapiens, UniProt P01375); test: Dot blot binding of mFLINT to TNF ligands
T1 construct: purchased

[2] = biological target: T2, FasL (Homo sapiens, UniProt P48023); test: Dot blot binding of mFLINT to TNF ligands; details: chemiluminescence detection
T2 construct: made in house
T2 sequence (P48023 1-281): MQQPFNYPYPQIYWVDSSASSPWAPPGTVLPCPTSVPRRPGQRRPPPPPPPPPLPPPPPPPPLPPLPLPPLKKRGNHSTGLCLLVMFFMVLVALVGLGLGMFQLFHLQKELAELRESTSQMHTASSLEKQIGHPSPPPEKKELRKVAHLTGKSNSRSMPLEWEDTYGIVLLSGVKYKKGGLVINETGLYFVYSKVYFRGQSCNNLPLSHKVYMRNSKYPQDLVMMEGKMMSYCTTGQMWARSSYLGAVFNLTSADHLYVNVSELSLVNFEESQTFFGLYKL
Experimental: (§1) Dot blot experiment was performed to scan known TNF ligands that are commercially available TRAIL and FasL for interaction with mFLINT.
(§2) TRAIL (RnD Systems) and FasL (Kamiya Biomedical Company) were spotted on a nitrocellulose paper and incubated with purified mFLINT-Flag. mFLINT was washed away and binding mFLINT was detected using anti Flag antibody. Both OPG2Fc and mFLINT-Flag were overexpressed and purified according the examples above. […] The nitrocellulose paper was subsequently mixed with the cell lysate containing FasL-Myc, and further incubated on a rotator for 1 hour at room temperature. Secondary and tertiary incubations were performed with anti-myc antibody and anti-mouse IgG-HRP for 1 hour and 30 minutes respectively.

[3] = biological target: T3, TRAIL (Homo sapiens, UniProt P50591); test: Dot blot binding of mFLINT to TNF ligands
T3 construct: purchased RnD Systems
Experimental: as §1, §2

[4] = system: Mouse T cell hybridoma cells (LTT cells); test: Murine FasL-mediated apoptosis of LTT cells (MTS cytotoxicity assay); format: cell-based; details: test agent 1 μg/ml
Experimental: LTT,2,14,11 cells (LTT cells), see Glasebrook, Eur.J.Immunol. 17: 1561-65 (1987), were used in this Annexin V assay. On the first day, a 96 well plate was coated with anti-CD3 (2C11) at a serial dilutions. On the second day, 100,000 LTT cells were added, in 50 μl of medium per well, along with 50 μl of medium to the control wells and 50 μl of medium containing:
The same steps as in Example 16 were followed on Day 1 and Day 2. On Day 3 20 ul of MTS solution (Promega) was added to the cells which were then incubated at 37° C. for 2 hours. Using a plate reader, the absorbances at 490 nm wavelength were collected.

[5] = system: osteoclasts; test: Porcine osteoclast differentiation assay (TRAP staining); format: cell-based, pig; details: mean and standard error of 6 wells
Text: Neonatal pigs (aged 1-5 days) were euthanized with CO2, the appendages were rinsed with 70% ethanol, the soft tissues were removed, and the humeri, radii, ulnae, femora, tibiae and fibulae were excised. The long bones were placed in ice-cold calcium and magnesium-free Hank's balanced salt solution (CMF-HBSS, Gibco BRL) and cleaned of all soft tissues. The bones were split longitudinally and the endosteal surfaces were scraped to remove both the marrow and trabecular bone. The suspension of trabecular bone particles and marrow cells was agitated by vigorous shaking and passed through a […] and then […] sieve. Cells were centrifuged at 500×g for 10 minutes at 4° C., the pellet was resuspended in CMF-HBSS, and then separated on a Ficoll-Paque gradient (Pharmacia, Piscataway, N.J.). The mononuclear cell fraction from the gradient was washed twice in CMF-HBSS and passed through a […] sieve. The cells were suspended in growth medium consisting of a-MEM (pH 7.2, which was modified to contain 8.3 mM NaHCO3 (Gibco BRL, Grand Island, N.Y.)), 10% heat-inactivated fetal bovine serum (FBS, Hyclone, Logan, Utah) and 2% antibiotic/antimycotic solution (Gibco BRL, Grand Island, N.Y.) and seeded onto tissue culture dishes at a density of 1×10^6 cells/cm^2. A typical marrow cell yield was between 1-2×10^9 cells/animal, which varied with the size of the animal. The cells were incubated at 37° C. in a humid incubator with 5% CO2. […] Following 5 days of culture, the cells were fixed with formalin (3.7% for 10 min) and then stained for tartrate-resistant acid phosphatase (TRAP) as in Example 6. The number of osteoclasts (TRAP-positive cells containing 3 or more nuclei) was quantitated.

[6] = biological target: T4, TRANCE (Homo sapiens, UniProt O14788); test: Dot blot binding of mFLINT to TNF ligands
T4 construct: purchased
T4 sequence (O14788 140-317 limits assumed): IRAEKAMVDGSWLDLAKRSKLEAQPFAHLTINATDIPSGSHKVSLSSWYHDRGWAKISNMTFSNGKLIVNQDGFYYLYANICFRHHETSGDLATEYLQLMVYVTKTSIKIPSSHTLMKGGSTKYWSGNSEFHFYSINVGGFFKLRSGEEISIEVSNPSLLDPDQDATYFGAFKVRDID

[7] = biological target: T5, TNFβ (Homo sapiens, UniProt P01374); test: Dot blot binding of mFLINT to TNF ligands
T5 construct: purchased
T5 sequence (P01374 35-205): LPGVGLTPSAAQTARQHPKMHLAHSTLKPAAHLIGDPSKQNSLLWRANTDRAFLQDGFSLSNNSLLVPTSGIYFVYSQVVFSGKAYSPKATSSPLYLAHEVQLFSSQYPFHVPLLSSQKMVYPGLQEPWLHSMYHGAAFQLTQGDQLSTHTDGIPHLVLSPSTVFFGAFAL

[8] = system: Ventricular cardiomyocytes; test: Hypoxia/reperfusion-induced cardiomyocyte apoptosis (nucleosome DNA ELISA)
Experimental: In particular, cardiomyocytes were incubated under hypoxia conditions for 8 hours, followed by 16 hours of culture under normal O2, which mimics the hypoxic conditions found in ischemic cardiac tissue.
Ventricular cardiomyocytes were isolated from the hearts of 1-3 day-old neonatal rats by trypsin digestion and non-myocytes were eliminated by pre-plating. Primary cultures were plated in special-coated 96-well plates in serum-free medium.
Hypoxia was induced by incubating cultures in glucose-free and oxygen-free (5% Co2 and 95% N2) for 8 hours. Reperfusion was mimicked by a 16 hour incubation in glucose-containing medium under normal oxygen conditions. At the end of this incubation, cardiomyocyte apoptosis was measured by the cytoplasmic nucleosome-associated DNA ELISA method. Test samples were incubated with mFLINT (2 μg/ml or 5 μg/ml) and control samples with Z-YVAD-fmk (50 μM), a commercial caspase inhibitor.

[9] = system: B16 melanoma cells; test: B16 melanoma subcutaneous tumor growth; format: in vivo; details: days 4-13
Experimental: Tumor response was monitored by tumor volume measurements as determined by caliper measurements of two dimensions of the tumors on days 4, 8, 11, 17, 21, 25, 30 and 34. Tumor volume was calculated as a hemi-ellipsoid. The animals were weighed on the same schedule described above.

T3 sequence (P50591 114-281 limits assumed, species assumed): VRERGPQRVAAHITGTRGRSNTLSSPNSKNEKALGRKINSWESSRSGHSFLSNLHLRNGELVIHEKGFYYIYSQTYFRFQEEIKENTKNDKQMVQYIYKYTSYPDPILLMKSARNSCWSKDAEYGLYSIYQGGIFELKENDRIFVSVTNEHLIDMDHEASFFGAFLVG
T1 sequence (P01375 77-233 limits assumed, species assumed): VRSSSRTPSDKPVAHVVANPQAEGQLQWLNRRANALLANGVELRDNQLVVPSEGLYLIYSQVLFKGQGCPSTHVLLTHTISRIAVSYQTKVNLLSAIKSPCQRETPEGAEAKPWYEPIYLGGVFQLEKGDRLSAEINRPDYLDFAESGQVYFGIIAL

B1: mFLINT: mature FLINT without leader peptide (FIG. 3), soluble TNFR superfamily member, made according to Examples 8 and 9 (protein)
chain: VAETPTYPWRDAETGERLVCAQCPPGTFVQRPCRRDSPTTCGPCPPRHYTQFWNYLERCRYCNVLCGEREEEARACHATHNRACRCRTGFFAHAGFCLEHASCPPGAGVIAPGTPSQNTQCQPCPPGTFSASSSSSEQCQPHRNCTALGLALNVPGSSSHDTLCTSCTGFPLSTRVPGAEECERAVIDFVAFQDISIKRLQRLLQALEAPEGWGPTPRAGRAALQLKLRRRLTELLGAQDGALLVRLLQALRVARMPGLERSVRERFLPVH
modifications: glycosylated
With B1 the “binding in dot blot” value [1] was “No appreciable binding”, the “binding in dot blot” value [2] was “bound to FasL specifically” and the “binding in dot blot” value [3] was “No appreciable binding”. The “MTS absorbance at 490 nm” value ([4]; Anti CD3 conc. 0 μg/ml) was 1.691, the “MTS absorbance at 490 nm” value ([4]; Anti CD3 conc. 0.0014 μg/ml) was 1.923 and the “MTS absorbance at 490 nm” value ([4]; Anti CD3 conc. 0.004 μg/ml) was 1.982. The “MTS absorbance at 490 nm” value ([4]; Anti CD3 conc. 0.012 μg/ml) was 2.006, the “MTS absorbance at 490 nm” value ([4]; Anti CD3 conc. 0.037 μg/ml) was 2.006 and the “MTS absorbance at 490 nm” value ([4]; Anti CD3 conc. 0.11 μg/ml) was 1.874. The “MTS absorbance at 490 nm” value ([4]; Anti CD3 conc. 0.33 μg/ml) was 1.671, the “MTS absorbance at 490 nm” value ([4]; Anti CD3 conc. 1 μg/ml) was 1.581 and the Osteoclasts/well ([5]; FLINT 0.01 ng/ml, control 214.83) was 68.83 ± 6.28 Osteoclasts/well. The Osteoclasts/well ([5]; FLINT 0.10 ng/ml) was 176.17 ± 23.01 Osteoclasts/well, the Osteoclasts/well ([5]; FLINT 1.00 ng/ml) was 228.50 ± 17.26 Osteoclasts/well and the Osteoclasts/well ([5]; FLINT 10.00 ng/ml) was 228.50 ± 29.29 Osteoclasts/well. For the same molecule, the Osteoclasts/well ([5]; FLINT 100.00 ng/ml) was 382.33 ± 26.59 Osteoclasts/well, the “binding in dot blot” value [6] was “No appreciable binding” and the “binding in dot blot” value [7] was “No appreciable binding”. For the same molecule, the “inhibition of hypoxia-induced apoptosis” value ([8]; 10 μg/ml mFLINT, 8 hours hypoxia, 16 hours normal O2) was 90%, the “inhibition of hypoxia/reperfusion-induced apoptosis” value ([8]; mFLINT 2 μg/ml or 5 μg/ml, duplicate experiments) was “essentially complete inhibition” and the “day tumors reached a volume of 500 mm^3” value ([9]; 50 μg/injection iv once daily) was 19.3 ± 0.3 days. For the same molecule, the “day tumors reached a volume of 1000 mm^3” value ([9]; 50 μg/injection iv once daily) was 23.0 ± 0.4 days, the tumor growth delay ([9]; 50 μg/injection iv once daily) was 1.8 days and the “tumor volume after 20 days” value ([9]; FIG. 8, 50 μg/injection iv, control approximately 1000 mm^3) was “approximately 730 mm^3”.
